US20220089702A1 (PROTHENA BIOSCIENCES, published 2022)
Ends that are not written are not given here.

T1: biotinylated tau peptide spanning amino acids 199-213 of SEQ ID NO:3 (human, also: biotinylated (position not given here))
T1 peptide: KSKIGSTENLKHQPG

B1: mouse monoclonal antibody 8A4 (antibody, mouse IgG1, V domains shown)
VH: EVQLQQSGAELVRPGALVKLSCKASGFNIKDYYIHWVKQRPEQGLEWIGWIDPENGDTVYDPQFQDKANITADTSSNTAYLQLSSLTSEGTAVYYCSTLDFWGQGTTLTVSS
VL: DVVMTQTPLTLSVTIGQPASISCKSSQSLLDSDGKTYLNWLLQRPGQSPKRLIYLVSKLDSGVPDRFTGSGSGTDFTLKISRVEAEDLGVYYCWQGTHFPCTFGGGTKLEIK
notes: Mouse IgG1/kappa; also called m8A4; murine 8A4
B2: mouse monoclonal antibody 6A10 (antibody, mouse IgG1, V domains shown)
VH: EVQLQQSGAELVRSGASVKLSCTASGLNIKDYYIHWVKQRPEQGLEWIGWIDPENDDTEYAPKFQGRATLTTDTSSNTAYLQLSSLTSEDTAVYYCTPLDYWGQGTSVTVSS
VL: not shown
notes: Mouse IgG1/kappa; also called m6A10; murine 6A10
B3: mouse monoclonal antibody 5G8 (antibody, V domains shown)
VH: EVQLQQSGAELVRSGASVRLSCTASGFNIKDYYMHWVRQRPEQGLEWIGWIDPENGDTVYAPKFQGKATMTSDTSSNTAYLHLSSLTSEDTAVYYCSPLDFWGQGTTLTVSS
VL: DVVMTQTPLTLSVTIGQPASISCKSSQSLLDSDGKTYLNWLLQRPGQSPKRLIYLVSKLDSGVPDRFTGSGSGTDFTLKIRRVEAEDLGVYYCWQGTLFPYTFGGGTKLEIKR
notes: Hybridoma-produced mouse antibody; also called m5G8; murine 5G8

Target: T1, biotinylated tau peptide spanning amino …
Test: ELISA, biotinylated peptide on streptavidin plate
Text: Overlapping biotinylated peptides spanning the length of the 4R0N isoform of tau (383 amino acids) were bound to wells of a streptavidin-coated ELISA plate. The plate was washed and blocked, and murine forms of antibodies 5G8, 6A10, 8A4, 7G6 and 3D6 were applied. After washing, a horseradish peroxidase-conjugated anti-mouse antibody was applied to the plate, followed by treatment with OPD (o-phenylenediamine dihydrochloride) to allow color development. The plate was read at 450 nm absorbance, with background from wells omitting primary antibody used as a blank subtraction. […] These peptides correspond to amino acids 257-271 and 315-329 in the full-length 4R2N human tau protein.

Binding result, binds:
B1
B2
B3
